Results from US20070254831A1 (published 2007).
Read-outs that look alike come from different tables or passages of the source. Bridge positions count the residues as written; N and C are the ends. Square brackets hold non-standard residues; d marks the D form. Ends that are not written are not given here. Pen = CC(C)(S)[C@H](N)C(=O)O; Dab = NCC[C@H](N)C(=O)O

B1: Peptide No. 149 (peptide)
peptide: QRF[Pen]TGHF[dA][dP]LYPCNGP-NH2
modifications: disulfide 4-14; N-terminus assumed
SMILES: CC(C)C[C@@H]1NC(=O)[C@H]2CCCN2C(=O)[C@@H](C)NC(=O)[C@H](Cc2ccccc2)NC(=O)[C@H](Cc2c[nH]cn2)NC(=O)CNC(=O)[C@H]([C@@H](C)O)NC(=O)[C@@H](NC(=O)[C@H](Cc2ccccc2)NC(=O)[C@H](CCCNC(=N)N)NC(=O)[C@@H](N)CCC(N)=O)C(C)(C)SSC[C@@H](C(=O)N[C@@H](CC(N)=O)C(=O)NCC(=O)N2CCC[C@H]2C(N)=O)NC(=O)[C@@H]2CCCN2C(=O)[C@H](Cc2ccc(O)cc2)NC1=O
B2: Peptide No. 151 (peptide)
peptide: QRF[Pen]TGHF[dF][dA]LYPCNGP-NH2
modifications: disulfide 4-14; N-terminus assumed
SMILES: CC(C)C[C@@H]1NC(=O)[C@@H](C)NC(=O)[C@@H](Cc2ccccc2)NC(=O)[C@H](Cc2ccccc2)NC(=O)[C@H](Cc2c[nH]cn2)NC(=O)CNC(=O)[C@H]([C@@H](C)O)NC(=O)[C@@H](NC(=O)[C@H](Cc2ccccc2)NC(=O)[C@H](CCCNC(=N)N)NC(=O)[C@@H](N)CCC(N)=O)C(C)(C)SSC[C@@H](C(=O)N[C@@H](CC(N)=O)C(=O)NCC(=O)N2CCC[C@H]2C(N)=O)NC(=O)[C@@H]2CCCN2C(=O)[C@H](Cc2ccc(O)cc2)NC1=O
B3: Peptide No. 155 (peptide)
peptide: QRF[Pen]TGHF[dF]GPYPCNGP-NH2
modifications: disulfide 4-14; N-terminus assumed
SMILES: C[C@@H](O)[C@@H]1NC(=O)[C@@H](NC(=O)[C@H](Cc2ccccc2)NC(=O)[C@H](CCCNC(=N)N)NC(=O)[C@@H](N)CCC(N)=O)C(C)(C)SSC[C@@H](C(=O)N[C@@H](CC(N)=O)C(=O)NCC(=O)N2CCC[C@H]2C(N)=O)NC(=O)[C@@H]2CCCN2C(=O)[C@H](Cc2ccc(O)cc2)NC(=O)[C@@H]2CCCN2C(=O)CNC(=O)[C@@H](Cc2ccccc2)NC(=O)[C@H](Cc2ccccc2)NC(=O)[C@H](Cc2c[nH]cn2)NC(=O)CNC1=O
B4: Peptide No. 36 (peptide)
peptide: QRFCTG[Dab]FGGLYPCNGP-NH2
modifications: disulfide 4-14; N-terminus assumed
SMILES: CC(C)C[C@@H]1NC(=O)CNC(=O)CNC(=O)[C@H](Cc2ccccc2)NC(=O)[C@H](CCN)NC(=O)CNC(=O)[C@H]([C@@H](C)O)NC(=O)[C@@H](NC(=O)[C@H](Cc2ccccc2)NC(=O)[C@H](CCCNC(=N)N)NC(=O)[C@@H](N)CCC(N)=O)CSSC[C@@H](C(=O)N[C@@H](CC(N)=O)C(=O)NCC(=O)N2CCC[C@H]2C(N)=O)NC(=O)[C@@H]2CCCN2C(=O)[C@H](Cc2ccc(O)cc2)NC1=O
B5: Peptide No. 248 (peptide)
peptide: RFXTGXFGGLYPC
modifications: not fully specified; Pen at 3; Thz at 6; Sar at 9; NMeLeu at 10; disulfide; C-terminal amide
B6: Peptide No. 261 (peptide)
peptide: RFXTGXFGGLYPC
modifications: Pen at 3; PropargylGly at 6; Sar at 9; NMeLeu at 10; disulfide; C-terminal amide
B7: Peptide No. 262 (peptide)
peptide: RFXTGXFGGLYPC
modifications: Pen at 3; 2-PyrrolidinylAla at 6; Sar at 9; NMeLeu at 10; disulfide; C-terminal amide
B8: Peptide No. 269 (peptide)
peptide: RFXTGXFGGLYPC
modifications: Pen at 3; Thz(Me) (N-methyl-thiazolium) at 6; Sar at 9; NMeLeu at 10; disulfide; -CONH2
B9: Peptide No. 271 (peptide)
peptide: RFXTGXFGGLYPC
modifications: Pen at 3; triazolylAla at 6; Sar at 9; NMeLeu at 10; disulfide; C-terminal amide
B10: Peptide No. 157 (peptide)
peptide: QRFVTGHFG[dP]LYPANGP-NH2
modifications: N-terminus assumed
SMILES: CC(C)C[C@H](NC(=O)[C@H]1CCCN1C(=O)CNC(=O)[C@H](Cc1ccccc1)NC(=O)[C@H](Cc1c[nH]cn1)NC(=O)CNC(=O)[C@@H](NC(=O)[C@@H](NC(=O)[C@H](Cc1ccccc1)NC(=O)[C@H](CCCNC(=N)N)NC(=O)[C@@H](N)CCC(N)=O)C(C)C)[C@@H](C)O)C(=O)N[C@@H](Cc1ccc(O)cc1)C(=O)N1CCC[C@H]1C(=O)N[C@@H](C)C(=O)N[C@@H](CC(N)=O)C(=O)NCC(=O)N1CCC[C@H]1C(N)=O
B11: Peptide No. 168 (peptide)
peptide: QRFVTGHFG[dP]LYPLNGP-NH2
modifications: N-terminus assumed
SMILES: CC(C)C[C@H](NC(=O)[C@H]1CCCN1C(=O)CNC(=O)[C@H](Cc1ccccc1)NC(=O)[C@H](Cc1c[nH]cn1)NC(=O)CNC(=O)[C@@H](NC(=O)[C@@H](NC(=O)[C@H](Cc1ccccc1)NC(=O)[C@H](CCCNC(=N)N)NC(=O)[C@@H](N)CCC(N)=O)C(C)C)[C@@H](C)O)C(=O)N[C@@H](Cc1ccc(O)cc1)C(=O)N1CCC[C@H]1C(=O)N[C@@H](CC(C)C)C(=O)N[C@@H](CC(N)=O)C(=O)NCC(=O)N1CCC[C@H]1C(N)=O
B12: Peptide No. 174 (peptide)
peptide: QRFVTGHFG[dP]IYPANGP-NH2
modifications: N-terminus assumed
SMILES: CC[C@H](C)[C@H](NC(=O)[C@H]1CCCN1C(=O)CNC(=O)[C@H](Cc1ccccc1)NC(=O)[C@H](Cc1c[nH]cn1)NC(=O)CNC(=O)[C@@H](NC(=O)[C@@H](NC(=O)[C@H](Cc1ccccc1)NC(=O)[C@H](CCCNC(=N)N)NC(=O)[C@@H](N)CCC(N)=O)C(C)C)[C@@H](C)O)C(=O)N[C@@H](Cc1ccc(O)cc1)C(=O)N1CCC[C@H]1C(=O)N[C@@H](C)C(=O)N[C@@H](CC(N)=O)C(=O)NCC(=O)N1CCC[C@H]1C(N)=O
B13: Peptide No. 175 (peptide)
peptide: QRFVTGHFG[dP]FYPANGP-NH2
modifications: N-terminus assumed
SMILES: CC(C)[C@H](NC(=O)[C@H](Cc1ccccc1)NC(=O)[C@H](CCCNC(=N)N)NC(=O)[C@@H](N)CCC(N)=O)C(=O)N[C@H](C(=O)NCC(=O)N[C@@H](Cc1c[nH]cn1)C(=O)N[C@@H](Cc1ccccc1)C(=O)NCC(=O)N1CCC[C@@H]1C(=O)N[C@@H](Cc1ccccc1)C(=O)N[C@@H](Cc1ccc(O)cc1)C(=O)N1CCC[C@H]1C(=O)N[C@@H](C)C(=O)N[C@@H](CC(N)=O)C(=O)NCC(=O)N1CCC[C@H]1C(N)=O)[C@@H](C)O

Assays:
soluble human FcRn [1] = target: T1, soluble human FcRn (human, UniProt P55899 24-297; P61769 21-119, biotinylated (Sulfo-NHS-LC-Biotin) in the ELISA; amine-coupled to CM5 chip in SPR); experiment: SPR, pH 6
T1 construct: also called shFcRn; biotinylated shFcRn
T1 sequence (P55899 24-297 limits assumed, chain 1 of 2): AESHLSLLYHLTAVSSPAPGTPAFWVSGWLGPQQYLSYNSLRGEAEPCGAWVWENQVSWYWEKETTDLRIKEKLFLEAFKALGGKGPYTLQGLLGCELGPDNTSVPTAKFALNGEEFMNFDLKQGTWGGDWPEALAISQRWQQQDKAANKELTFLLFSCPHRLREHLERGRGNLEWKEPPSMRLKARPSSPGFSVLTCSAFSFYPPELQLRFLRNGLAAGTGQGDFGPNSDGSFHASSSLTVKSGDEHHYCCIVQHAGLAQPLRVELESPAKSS
T1 sequence (P61769 21-119 limits assumed, chain 2 of 2): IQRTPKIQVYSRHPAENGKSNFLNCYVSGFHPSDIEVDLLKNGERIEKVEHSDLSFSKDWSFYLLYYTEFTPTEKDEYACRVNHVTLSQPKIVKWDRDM
Experimental: (§1) The following steps were performed to cross-link soluble human or cynomolgus FcRn to the dextran surface of a CM5 sensor chip (Biacore AB, Uppsala, Sweden) by an amine coupling reaction involving 1-ethyl-(3-dimethylaminopropyl)-carbodiimide hydrochloride (EDC) (Biacore AB, Uppsala, Sweden) and N-hydroxysuccinimide (NHS) (Biacore AB, Uppsala, Sweden) as recommended by Biacore (BIAapplications Handbook, version AB, section 4.2, Biacore AB, Uppsala, Sweden). […] Residual sites on the FcRn flow cell were blocked with 1 M ethanolamine hydrochloride pH 8.5 (Biacore AB, Uppsala, Sweden). A control flow cell was blocked with ethanolamine for reference subtraction. For analysis of the monomeric peptides, FcRn was coated to a final density of 4000-5000 response units (RU). For analysis of the peptide dimers, FcRn was coated to a density of 2000-2500 RU. All SPR measurements were performed using a BIACORE 3000 Instrument (Biacore AB Uppsala, Sweden). For measurements done at either pH 6 or pH 7.4, experiments were performed in 50 mM phosphate, 100 mM sodium chloride, 0.01% surfactant P20 (Biacore AB, Uppsala, Sweden).
(§2) Ten, 2-fold dilutions of the peptide were injected over the FcRn-CM5 chip at a rate of 20 μl/min for 2 min. The peptide was dissociated from the chip for 2.5 minutes with buffer. Any remaining peptide was removed from the chip with a 30 second injection of HBS-P buffer (Biacore AB, Uppsala, Sweden) at a rate of 30 μl/min. Sensorgrams were generated and analyzed using BiaEval software version 3.1 (Biacore AB, Uppsala, Sweden). The equilibrium RU observed for each injection was plotted against concentration. The equilibrium KD values were derived by analysis of the plots using the steady state affinity model included in the BiaEval software.

soluble human FcRn [2] = target: T1, soluble human FcRn; experiment: ELISA, competitor human IgG
Experimental: (§3) The wells were coated with 100 μl/well of 1 μg/ml biotinylated-shFcRn in Buffer A. The plate was sealed and incubated at 37° C. for 2 hours. Afterwards, the plate washed with 200 μl/well of Buffer B (Buffer B: 100 mM MES pH 6, 150 mM NaCl, 0.5% BSA IgG-free (Jackson ImmunoResearch, West Grove, Pa.), 0.05% Tween-20). […] To allow for mixing, the plate was rocked for 2 minutes, sealed and incubated at 37° C. for 2 hours. […] The plate was covered, incubated for 30 minutes at room temperature and washed 4 times with 200 μl/well of ice-cold buffer B. SureBlue TMB substrate solution (100 μl/well, KPL, Gaithersburg, Md.) was added and the plate was allowed to incubate at room temperature until color developed, which took 5 to 10 minutes. Once color developed, 100 μl/well of TMB stop solution (KPL, Gaithersburg, Md.) was added and the absorbance was measured at 450 nm. The data was plotted as absorbance vs. peptide concentration to derive the inhibitory concentration 50% (IC₅₀) values.

soluble human FcRn [3] = target: T1, soluble human FcRn; experiment: SPR, pH 6; remark: listed apart in the source
Experimental: as §1, §2

soluble human FcRn [4] = target: T1, soluble human FcRn; experiment: ELISA, competitor human IgG; remark: listed apart in the source
soluble human FcRn [5] = target: T1, soluble human FcRn; experiment: ELISA, competitor human IgG; remark: listed apart in the source
Experimental: as §3

Binder | Kd (soluble human FcRn [1]) [µM] | IC50 (soluble human FcRn [2]) [µM] | further results
QRFXTGHFGYLYPCNGP (Pen at 4; D-Tyr at 10; disulfide; C-terminal amide) [Peptide No. 45] | 1.5 |  | 
QRFXTGHFPGLYPCNGP (Pen at 4; D-Pro at 9; disulfide; C-terminal amide) [Peptide No. 48] |  | 5 | 
QRFXTGHFRGLYPCNGP (Pen at 4; D-Arg at 9; disulfide; C-terminal amide) [Peptide No. 49] |  | 4.1 | 
QRFXTGHFHGLYPCNGP (Pen at 4; D-His at 9; disulfide; C-terminal amide) [Peptide No. 50] |  | 3.6 | 
QRFXTGHFFGLYPCNGP (Pen at 4; D-Phe at 9; disulfide; C-terminal amide) [Peptide No. 52] | 0.51 | 2.8 | 
QRFXTGHFGALYPCNGP (Pen at 4; D-Ala at 10; disulfide; C-terminal amide) [Peptide No. 74] | 0.48 | 2 | 
QRFXTGHFAGLYPCNGP (Pen at 4; D-Ala at 9; disulfide; C-terminal amide) [Peptide No. 75] | 0.49 |  | 
QRFXTGHFAALYPCNGP (Pen at 4; D-Ala at 9 and 10; disulfide; C-terminal amide) [Peptide No. 148] | 0.45 |  | 
B1 |  | 3.7 | 
QRFXTGHFFPLYPCNGP (Pen at 4; D-Phe at 9; D-Pro at 10; disulfide; C-terminal amide) [Peptide No. 150] | 0.72 | 5.9 | 
B2 |  | 4.3 | 
QRFXTGHFPPLYPCNGP (Pen at 4; D-Pro at 9 and 10; disulfide; C-terminal amide) [Peptide No. 152] |  | 21 | 
QRFXTGHFFGLYPCNGP (Pen at 4; D-Phe at 9; NMeLeu at 11; disulfide; C-terminal amide) [Peptide No. 153] | 0.24 | 1.3 | 
B3 | 18.3 | 39 | 
QRFXTGHFAGLYPCNGP (Pen at 4; D-Ala at 9; Sar at 10; disulfide; C-terminal amide) [Peptide No. 189] | 0.19 |  | 
QRFXTGHFFPLYPCNGP (Pen at 4; D-Phe at 9 (L-Pro at 10); disulfide; C-terminal amide) [Peptide No. 203] | 3.8 |  | 

Binder | Kd (soluble human FcRn [1]) [µM] | IC50 (soluble human FcRn [2]) [µM] | further results
RFXTGAFGGLYPC (Pen at 3; Sar at 9; NMeLeu at 10; disulfide; C-terminal amide) [Peptide No. 266] |  |  | Kd (soluble human FcRn [3]): 9.9 µM; IC50 (soluble human FcRn [4]): > 100 µM
QRFXTGHFXGLYPCNGP (Pen at 4; Aib at 9; disulfide; C-terminal amide) [Peptide No. 54] | 5.2 | 17 | 
B4 |  |  | IC50 (soluble human FcRn [4]): > 125 µM
QRFXTGXFGGLYPCNGP (Pen at 4; Thz at 7; disulfide; C-terminal amide) [Peptide No. 91] |  |  | IC50 (soluble human FcRn [4]): 44 µM
QRFXTGXFGGLYPCNGP (Pen at 4; (1Me)His at 7; disulfide; C-terminal amide) [Peptide No. 138] |  |  | Kd (soluble human FcRn [3]): 0.74 µM; IC50 (soluble human FcRn [4]): 3.4 µM
B5 |  |  | Kd (soluble human FcRn [3]): 0.84 µM; IC50 (soluble human FcRn [4]): 1.6 µM
RFXTGXFGGLYPC (Pen at 3; Orn at 6; Sar at 9; NMeLeu at 10; disulfide; C-terminal amide) [Peptide No. 254] |  |  | Kd (soluble human FcRn [3]): 1.3 µM
RFXTGXFGGLYPC (Pen at 3; 4aminoPhe at 6; Sar at 9; NMeLeu at 10; disulfide; C-terminal amide) [Peptide No. 258] |  |  | IC50 (soluble human FcRn [4]): 4.6 µM
B6 |  |  | IC50 (soluble human FcRn [4]): 160 µM
B7 |  |  | Kd (soluble human FcRn [3]): 8.4 µM
B8 |  |  | IC50 (soluble human FcRn [4]): 2.4 µM
B9 |  |  | IC50 (soluble human FcRn [4]): 5.7 µM
B10 |  |  | IC50 (soluble human FcRn [5]): 195 µM
B11 |  |  | IC50 (soluble human FcRn [5]): 100 µM
B12 |  |  | IC50 (soluble human FcRn [5]): 94 µM
B13 |  |  | IC50 (soluble human FcRn [5]): 200 µM
